Experimental data published in patent US20190353654A1 (published 2019).

T1: CCL27 (UniProt Q9Y4X3 25-112, limits assumed)
T1 sequence (looked up): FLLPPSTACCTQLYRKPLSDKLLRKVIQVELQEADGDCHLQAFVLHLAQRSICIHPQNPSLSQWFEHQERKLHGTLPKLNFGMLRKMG

T2: CCL28 (UniProt Q9NRJ3 20-127)
T2 construct: range 20-127; also called CCL2820-127
T2 sequence (looked up): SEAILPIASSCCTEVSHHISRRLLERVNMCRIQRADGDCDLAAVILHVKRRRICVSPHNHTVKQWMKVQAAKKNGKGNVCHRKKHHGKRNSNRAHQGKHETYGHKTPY

T3: CXCL11 (UniProt O14625 22-94)
T3 sequence (looked up): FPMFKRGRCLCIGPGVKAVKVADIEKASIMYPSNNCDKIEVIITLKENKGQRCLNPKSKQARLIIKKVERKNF

B1: CCR10^QTY (receptor, not shown: small tags and cut ends)
chain: MGTEATEQVSWGHYSGDEEDAYSAEPLPELCYKADVQAFSRAFQPSVSLTVAAQGQAGNGQTQATHQAARRAARSPTSAHQQQQAQADQQQAQTQPYAAAGALQGWSLGSATCRTTSGQYSASYHAGYQYQACTSADRYVAIARALPAGPRPSTPGRAHQTSTTTWQQSQQQAQPAQQYSQDGQREGQRRCRLIFPEGLTQTVKGASATAQTAQGYAQPQGTMTACYALLGRTLLAARGPERRRALRTTTAQTAAYTTQQQPYSQAQQQDTADLLAARERSCPASKRKDVAQQTTSGQAQARCGQNPTQYAYQGLRFRQDLRRLLRGGSCPSGPQPRRGCPRRPRLSSCSAPTETHSLSWDN
modifications: Receptor labelled with NT647 dye (RED-NHS, on amines) for MST; sites not specified
notes: Expressed in SF9 insect cells and purified without detergent
B2: CCR5^QTY (receptor, not shown: small tags and cut ends)
chain: MDYQVSSPIYDINYYTSEPCQKINVKQIAARQQPPQYSQTFTYGFTGNMQTTQTQINCKRLKSMTDIYLQNQAISDQYYQQTTPYWAHYAAAQWDFGNTMCQQQTGQYFTGYYSGTYYTTQQTTDRYLAVVHAVFALKARTTTYGTTTSTTTWTTATYASQPGTTYTRSQKEGLHYTCSSHFPYSQYQFWKNFQTLKITIQGQVQPQQTMVTCYSGTQKTLLRCRNEKKRHRAVRQTFTTMTTYYQYWAPYNTTQQLNTFQEFFGLNNCSSSNRLDQAMQVTETQGMTHCCTNPTIYAYVGEKFRNYLLVFFQKHIAKRFCKCCSIFQQEAPERASSVYTRSTGEQEISVGL
modifications: Receptor labelled with NT647 dye (RED-NHS, on amines) for MST; sites not specified
notes: Expressed in SF9 insect cells and purified without detergent; also called detergent-free CCR5 variant
B3: CXCR7^QTY (receptor)
chain: MDLHLFDYSEPGNFSDISWPCNSSDCIVVDTVMCPNMPNKSTQQYTQSYTYTYTYTTGMTANSVVVWVNIQAKTTGYDTHCYTQNQATADQWTTQTTPTWTTSLVQHNQWPMGELTCKTTHQTYSTNQYGSTYYQTCMSVDRYLSITYFTNTPSSRKKMVRRTTCTQTWQQAYCTSQPDTYYQKTVTSASNNETYCRSFYPEHSIKEWLIGMEQTSTTQGYATPYSTTATYYYQLARAISASSDQEKHSSRKTTYSYTTTYQTCWQPYHTATQLDIFSILHYIPFTCRLEHALFTAQHTTQCQSQTHCCTNPTQYSYTNRNYRYELMKAFIFKYSAKTGLTKLIDASRVSETEYSALEQSTK
modifications: The receptor was labelled with NT647 (RED-NHS dye on lysines, positions not defined) for MST. The letters do not carry this.
notes: Expressed in SF9 insect cells and purified without detergent; not shown: C-terminal His tag
B4: CXCR4^QTY (receptor, not shown: small tags and cut ends)
chain: MEGISIYTSDNYTEEMGSGDYDSMKEPCFREENANFNKTYQPTTYSTTYQTGTTGQGQTTQTMGYQKKQRSMTDKYRQHQSTADQQYTTTQPYWATDATANWYFGNFQCKATHTTYTTQQYSSTQTQAYTSQDRYLAIVHATNSQRPRKQQAEKTTYTGTWTPAQQQTTPDYTYANVSEADDRYICDRFYPNDLWTTTYQYQHTMTGQTQPGTTTQSCYCTTTSKLSHSKGHQKRKALKTTTTQTQAYYACWQPYYTGTSTDSFILLEIIKQGCEFENTVHKWTSTTEAQAYYHCCQQPTQYAYQGAKYKTSAQHAQTSTSRGSSQKTQSKGKRGGHSSTSTESESSSFHSS
modifications: Receptor labelled with NT647 dye (RED-NHS, on amines) for MST; sites not specified

What was measured:
[1] = molecular target: T1, CCL27; assay: MicroScale Thermophoresis, labeled receptor, ligand titrated, in 50% human serum
[2] = molecular target: T2, CCL28; assay: as above
[3] = molecular target: T1, CCL27; assay: MicroScale Thermophoresis, labeled receptor, ligand titrated, in buffer (1x PBS, 5 mM DTT)
[4] = molecular target: T2, CCL28; assay: as above
[5] = molecular target: human insulin (human, UniProt P01308 25-54; P01308 90-110); assay: MicroScale Thermophoresis, 5 nM labeled receptor, insulin titrated
[6] = molecular target: T4, HIV-1 coat protein gp41-120 (HIV-1); assay: MicroScale Thermophoresis, labeled receptor, ligand titrated, in 50% human serum
T4 construct: also called HIV coat proteins gp41-120; HIV surface protein gp41-120

[7] = molecular target: T4, HIV-1 coat protein gp41-120; assay: MicroScale Thermophoresis, labeled receptor, ligand titrated, in buffer (1x PBS, 5 mM DTT)
[8] = molecular target: T3, CXCL11; assay: MicroScale Thermophoresis, labeled receptor, ligand titrated, in 50% human serum
[9] = molecular target: T3, CXCL11; assay: MicroScale Thermophoresis, labeled receptor, ligand titrated, in buffer (1x PBS, 5 mM DTT)
[10] = molecular target: T4, HIV-1 coat protein gp41-120; assay: MicroScale Thermophoresis, labeled receptor, ligand titrated, in 50% human serum; remark: listed apart in the source

Row | Binder | Kd [1] | Kd [2] | Kd [3] | Kd [4] | binding result [5] | Kd [6] | Kd [7] | Kd [8] | Kd [9] | Kd [10]
1 | B1 | 5.6 nM | 21 nM | 3.1 nM | 9.3 nM | no binding (tested: 0.153 nM-5,000 nM insulin) | – | – | – | – | –
2 | B2 | – | – | – | – | no binding (tested: 0.153 nM-5,000 nM insulin) | 4.3 nM | 3.1 nM | – | – | –
3 | B3 | – | – | – | – | no binding (tested: 0.153 nM-5,000 nM insulin) | – | 1.2 nM | 28 nM | 16 nM | 7 nM
4 | B4 | – | – | – | – | no binding (tested: 0.153 nM-5,000 nM insulin) | – | 117 nM | – | – | 185 nM
